Reference: patent US20260242478A1 (published 2026)
Where no end group is shown, it is not given here.

B1: Phage-851 (peptide)
peptide: YCEGHSAEYMLKCL
notes: Peptide-87 library clone, tested as clonal phage supernatant
B2: Phage-850 (peptide)
peptide: YCDGHAPVYMAKCL
notes: as for B1
B3: Phage-849 (peptide)
peptide: YCDGHSPEYMNKCL
notes: as for B1
B4: Phage-848 (peptide)
peptide: YCHGHLQEYMAKCL
notes: as for B1
B5: Phage-852 (peptide)
peptide: YCDGHHIEYLAKCL
notes: as for B1
B6: Phage-866 (peptide)
peptide: YCDGHLPEYIFKCL
modifications: cysteine pairing not given here; also: fused to phage pIII coat protein (sequence and linker not given here)
notes: not shown: pIII coat protein of the bacteriophage to which the peptide is fused
B7: Phage-860 (peptide)
peptide: YCEGHSAEYMEKCL
notes: Peptide-87 library clone, tested as clonal phage (peptide fused to pIII)
B8: Phage-859 (peptide)
peptide: YCEGHAIEYLAKCL
notes: as for B7
B9: Phage-858 (peptide)
peptide: YCDGHAEKYMQKCL
notes: as for B7
B10: Phage-861 (peptide)
peptide: YCSGHSAEYMLKCL
notes: as for B7
B11: Phage-855 (peptide)
peptide: YCDGHSLQYMDKCL
notes: as for B7
B12: Phage-863 (peptide)
peptide: YCDGHLEEYMVKCM
notes: as for B7
B13: Phage-856 (peptide)
peptide: YCDGHYPEYMSKCL
notes: as for B7
B14: Phage-857 (peptide)
peptide: YCDGHASEYMAKCL
notes: as for B7
B15: Phage-864 (peptide)
peptide: YCEGHLQTYMAKCL
notes: as for B7
B16: Phage-865 (peptide)
peptide: YCAGHSQEHIQKCL
notes: as for B7
B17: Phage-854 (peptide)
peptide: YCEGHLPEYMQKCL
notes: as for B7
B18: Phage-862 (peptide)
peptide: YCEGHLPDYMQKCL
notes: as for B7
B19: Phage-853 (peptide)
peptide: YCSGHLPEYMQKCL
notes: as for B7

What follows are binders tested against T1, Anti-CD28 Fab (SEQ ID NOs: 696, 697) (assay: phage binding ELISA, clonal phage on biotinylated anti-CD28 Fab captured on neutravidin plates, anti-M13 HRP detection).
T1 construct: In the phage ELISA the Fab was biotinylated and captured on neutravidin coated plates
T1 sequence (VH, as listed by the source, chain 1 of 2): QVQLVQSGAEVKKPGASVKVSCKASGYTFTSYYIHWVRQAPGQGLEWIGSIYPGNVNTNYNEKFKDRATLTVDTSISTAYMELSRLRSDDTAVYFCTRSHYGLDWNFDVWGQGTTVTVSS
T1 sequence (VL, as listed by the source, chain 2 of 2): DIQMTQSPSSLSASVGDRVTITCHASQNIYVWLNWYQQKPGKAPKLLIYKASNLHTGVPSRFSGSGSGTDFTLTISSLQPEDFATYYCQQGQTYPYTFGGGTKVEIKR
Protocol: (§1) After panning, phage infected bacteria were plated out and colonies picked into 96 well blocks. Clonal phage was then amplified and separated from bacterial cells via centrifugation.
(§2) Clonal phage were harvested as crude supematants and screened via standard ELISAs. […] Prior to the addition of clonal phage, wells were incubated with blocking buffer and CD28 antigen or blocking buffer alone. Without washing or aspirating, clonal phage supematants were then added to the wells and incubated for a short time. Wells were then washed followed by detection of bound phage using a horse radish conjugated anti-M13 antibody. Clonal phage of interest were then sent for sequence analysis.

Binder | Anti-CD28 Fab (SEQ ID NOs: 696, 697) signal
B1 | 1.75
B2 | 1.75
B3 | 1.75
B4 | 1.76
B5 | 1.75

Each binder was assayed against T2, Anti-CD28 Fab (SEQ ID NOs: 696, 697) (assay: phage binding ELISA on Fab coated plate; wells pre-incubated with CD28 antigen as competitor).
T2 construct: In the phage ELISA the Fab was biotinylated and captured on neutravidin coated plates
T2 sequence (VH, as listed by the source, chain 1 of 2): as the sequence (VH, as listed by the source, chain 1 of 2) above
T2 sequence (VL, as listed by the source, chain 2 of 2): as the sequence (VL, as listed by the source, chain 2 of 2) above
Protocol: as §1, §2

Binder | Anti-CD28 Fab signal in the presence of CD28
B6 | 0.09

These binders were tested against T2, Anti-CD28 Fab (SEQ ID NOs: 696, 697) (assay: phage binding ELISA; biotinylated Fab on neutravidin plate, clonal phage supernatant, anti-M13 HRP detection;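 note: phage from clones picked after panning, added to wells pre-incubated with blocking buffer with or without CD28 antigen, then briefly incubated and washed before detection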).
Protocol: as §1, §2

Binder | Anti-CD28 Fab (SEQ ID NOs: 696, 697) signal
B6 | 1.73

What follows are binders tested against T3, Anti-CD28 Fab (SEQ ID NOs: 696, 697) (assay: phage binding ELISA, clonal phage on biotinylated anti-CD28 Fab captured on neutravidin plates;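 note: crude clonal phage supernatants added to wells pretreated with CD28 antigen or blocking buffer only, bound phage detected by HRP-linked anti-M13 antibody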).
T3 construct: Biotinylated and captured on neutravidin coated plates in the phage ELISA
T3 sequence (VH, as listed by the source, chain 1 of 2): as the sequence (VH, as listed by the source, chain 1 of 2) above
T3 sequence (VL, as listed by the source, chain 2 of 2): as the sequence (VL, as listed by the source, chain 2 of 2) above

Binder | Anti-CD28 Fab (SEQ ID NOs: 696, 697) signal
B7 | 1.73
B8 | 1.74
B9 | 1.74
B10 | 1.73
B11 | 1.75
B12 | 1.73
B13 | 1.75
B14 | 1.75
B15 | 1.73
B16 | 1.73
B17 | 1.75
B18 | 1.73
B19 | 1.75

These binders were tested against T1, Anti-CD28 Fab (SEQ ID NOs: 696, 697) (assay: phage binding ELISA on captured anti-CD28 Fab, wells pre-incubated with CD28 antigen as competitor;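 note: crude clonal phage supernatants added to wells preloaded with CD28 antigen, bound phage read by HRP-conjugated anti-M13 antibody, control wells got blocking buffer alone without CD28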).

Binder | Anti-CD28 Fab signal in the presence of CD28
B1 | 0.07
B2 | 0.06
B3 | 0.06
B4 | 0.07
B5 | 0.1

What follows are binders tested against T3, Anti-CD28 Fab (SEQ ID NOs: 696, 697) (assay: phage binding ELISA on plate-bound anti-CD28 Fab, wells pre-incubated with CD28 antigen as competitor).
Protocol: as §1, §2

Binder | Anti-CD28 Fab signal in the presence of CD28
B7 | 0.07
B8 | 0.07
B9 | 0.06
B10 | 0.08
B11 | 0.06
B12 | 0.06
B13 | 0.06
B14 | 0.09
B15 | 0.07
B16 | 0.09
B17 | 0.07
B18 | 0.07
B19 | 0.08
